Experimental data reported in patent US20040267001A1, “Genes encoding baeyer-villiger monooxygenases” (priority 2001, published 2004).

B1: ORF 15: Rhodococcus erythropolis AN12 ORF 15 chnB monooxygenase, protein SEQ ID NO:36, expressed in E. coli (protein)
chain: MTIVTDLDRDHLRSAVLRGNVPTMLAVLLELTADERWVAPRYQPTRSRGMDDNSTGGLPEEVQSEIRSALIDAVERWWTLDEPSRRTLDSSEVERILNFTCSETVPPDFAPMMAEIVNGPQIKPATAKCDERLHAIVIGAGIAGMLASVELSRAGIPHVILEKNDDVGGSWWENRYPGAGVDTPSHLYSISSFPRNWSTHFGKRDEVQGYLEDFAEANDIRRNVRFRHEVTRAEFEESKQSWRVSVQRPGEASETLEAPILISAVGLLNRPKIPHLPGIETFRGRLFHSAEWPSELDDPESLRGKRVGIVGTGASAMQIGPAIADRVGSLTIFQRSPQWIAPNDDYFTTIDDGVHWLMDNIPGYREWYRARLSWIFNDKVYSSLQVDPDWPEPSASINATNHGHRKFYERYLRDQLGDRTDLIEASLPDYPPFGKRMLLDNGWFTMLRKPDVTLVPHGVDALTPSGLVDTNGVEHQLDVIVMATGFHSVRVLYPMDIVGRSGRSTGEIWGEHDARAYLGITVPDFPNFFVMTGPNTGLGHGGSFITILECQVRYIMDALKLMQSENLGAMECRAEVNDRYNEAVDRQHAQMVWTHPAMENWYRNPDGRVVSVLPWRINDYWAMTYRVDPSDFRTEPARSESVPTPTARG
modifications: Rhodococcus erythropolis AN12
B2: ORF 19: Rhodococcus erythropolis AN12 ORF 19 chnB monooxygenase, protein SEQ ID NO:44, expressed in E. coli (protein)
chain: MTTQKALTTVDAIVIGAGFGGIYAVHKLANELGLTTVGFDKADGPGGTWYWNRYPGALSDTESHVYRFSFDRDLLQDGTWKHTYTTQPEILEYLEDVVSRFDLRRHFHFGTAVESAVYLEDEQLWEVTTDTGEIYRATYVVNAVGLLSAINRPDLPGLETFEGETIHTAAWPEGKDLTGRRVGVIGTGSTGQQVITALAPTVEHLTVFVRTPQYSVPVGKRAVTDEQIDAVKADYENIWTQVKRSSVAFGFEESTVPAMSVSAEERLRVYEEAWEQGGGFRFMFGTFGDIATDEEANETAASFIRSKITAMIEDPETARKLTPTGLFARRPLCDDGYFQVFNRPNVEAVAIKENPIREITAKGVVTEDGVLHKLDVLVLATGFDAVDGNYRRMTISGRGGLNINDHWDGQPTSYLGIATANFPNWFMVLGPNGPFTNLPPSIETQVEWISDTIGYVERTGVRAIEPTPEAESAWTATCTDIANMTVFTKVDSWIFGANVPGKKPSVLFYLGGLGNYRAVLADVTEGGYQGFALKTADTVDA
modifications: Rhodococcus erythropolis AN12

Assay: Conversion of cyclohexanone to caprolactone by E. coli clones expressing Rhodococcus erythropolis AN12 monooxygenases, GC-MS detection
Type: cell-based, Escherichia coli
Conditions: 500 mg/L cyclohexanone, 0.1 mM IPTG, overnight at 24° C., GC-MS of ethylacetate extract
Protocol: Following amplification, the gene fragments were cloned into pTrcHis-TOPO TA vectors with either an N-terminal tail or C-terminal tail, as provided by the vector sequence. These vectors were transformed into E. coli, with transformants grown in Luria-Bertani broth supplemented with ampicillin (100 ug/ml).
The chnB monooxygenase activity of each expressed enzyme from Example 9 was tested for activity according to its ability to convert cyclohexanone to caprolactone.
Clones containing the full length monooxygenase genes were transferred from LB agar plate to 5 mL of M63 minimal media (GIBCO) containing 10 mM glycerol, 50 ug/mL ampicillin, 0.1 mM IPTG, and 500 mg/L cyclohexanone. In addition to the clones containing full length monooxygenases, a plasmid without an insert and a “no cell” control were also assayed. The encoded monooxygenase sequences were expressed upon addition of IPTG to the culture media. The cultures were incubated overnight at room temperature (24° C.). Samples (1.25 mL) for analysis were taken immediately after inoculation and after overnight incubation; cells were removed by centrifugation (4° C., 13,000 rpm).
Caprolactone formed by the action of the cloned monooxygenase was extracted from the aqueous phase with ethylacetate (1.0 ml aqueous/0.5 mL ethylacetate). Caprolactone was detected by gas chromotagraphy mass spectrometry (GC-MS) analysis, using an Agilent 6890 Gas chromatograph system.
The analysis of the ethylacetate phase was performed by injecting 1 uL of the ethyl acetate phase into the GC. The inlet temperature was 115° C. and the column temperature profile was 50° C. for 4 min and ramped to 250° C. at 20° C./min, for a total run time of 14 min. The compounds were separated with an Hewlet Packard HP-5MS (5% phenyl Methyl Siloxane) column (30 m length, 250 um diameter, and 0.25 um film thickness). The mass spectrometer was run in Electron Ionization mode. The background mass spectra was subtracted from the spectra at the retention time of caprolactone (9.857 min). Presence of caprolactone was confirmed by comparison of the test reactions to an authentic standard obtained from Aldrich Chemical Company (St. Louis, Mo.).
Results of these assays are shown below in Table 7, in terms of the presence or absence of detectable caprolactone formation according to the activity of each expressed BV monooxygenase enzyme.

Row | Molecule | Formation of Caprolactone (ability to convert cyclohexanone to caprolactone)
1 | B1 | Not Detected
2 | B2 | Detected
